B1: 277F1F8 (antibody, V domains shown)
VH: QAYLQQSGPELVRSGASVKMSCKASGYTFTSHNMHWVKQTPGQGLEWIGYINPGNGGNNYNQKFKGKATLTADTSSSTAYMQISSLTSEDSAVYFCARDYYGNSFAFWGQGTLVTVSA
VL: DIVMTQSPSSLTETAGEKVSMSCKSSQSLLNSGNQKNYLTWYQQKPGQPPKLLIYWASTRESGVPDRFTGSGSGTDFTLTISSVQAEDLAVYYCQNDYRFPFTFGAGTKLELK
B2: 286C7F11 (antibody, V domains shown)
VH: QVQLKESGPGLVAPSQSLSITCTVSGFSLTDYGVSWIRQPPGKGLEWLGVIWNRGNTYYNSALKSRLSISKDNSKSQVFLRMNSLQTDDTAMYYCAKHDFLRFLDYWGQGTTLTVSS
VL: DVVMTQSPSSLTVTAGEKVTMSCKSSQSLLNSGNQKNYLTWYQQKPGQPPKILIYWASTRESGVPDRFTGSGSGTDFSLTITSVQAEDLAVYYCLNDYYYPLTFGAGTKLELK
B3: 280F3B6 (antibody, V domains shown)
VH: QAYLQQSGAELVRSGASVKMSCKASGYTFTSHNMHWVKQTPGQGLEWIGYIYPGNGGTNYNQKFKGKATLTADTSSSTAYMQISSLTSEDSAVYFCTRDYYGNSFAYWGQGTLVTVSA
VL: DIVMTQSPSSLTEKAGERVSMSCKSSQSLFNSGNQKNYLTWYQQKPGQPPKLLIYWASTRESGVPDRFTGSGSGTDFTLTISSVQAEDLAVYYCQNDYWYPFTFGAGTKLELK
B4: 370E2B12C3 (antibody, V domains shown)
VH: QVQLKESGPGLVAPSQSLSITCTVSGFSLTTYGVHWVRQPPGKGLEWLGVIWAGGSTNYNSALMSRVSINKDNSKSQVFIKMNSLQADDTALYYCARAAYYGNGLDYWGQGTTLTVSS
VL: DIVMTQSPSSLTVTAGEKVTMSCKSSQTLLNSGNQKNYLTWYQQKPGQPPKLLIYWASTGESGVPDRFTGSGSGTDFTLTISSVQAEDLAVYFCQNAYFYPFTFGGGTKLEIK
B5: 391F1G2 (antibody, V domains shown)
VH: DVQLVESGGGLVQPGGSRKLSCAASGFTFSSFGMHWVRQAPEKGLEWVAYISSGSSPIYYADTVKGRFTISRDNPKNTLFLQMTSLRSEDTAMYFCARIYYGNSFAYWGQGTLVTVSA
VL: DIVMTQSPSSLTVTAGEKVAMSCKSSQTLLNSGNQKNYLTWYQQKPGQPPKLLLYWASTRESGVPDRFTGSGSGTDFTLTISSVQAEDLAVYYCQNAYYYPLTFGSGTKLELK
B6: 392A11C8 (antibody, V domains shown)
VH: DVQLVESGGGLVQPGGSRKLSCAASGFTFSGFGMHWIRQTPEKGLEWVAYISSGSRPIYYADTVKGRFTISRDNPKNTLFLQMTSLRSEDTAMYFCARFYYGNSFDHWGQGTLVTVSA
VL: DIVMTQSPSFLTVTAGEKVTMSCRSSQSLLNSGNQKNYLTWYQQKPGQPPKLLIYWASTRESGVPDRFTGSGSGTDFTLTISSVQAEDLALYYCQNAYSFPLTFGAGTKLELK
B7: 391H11H3 (antibody, V domains shown)
VH: DVQLVESGGGLVQPGGSRKLSCAASGFTFSGFGMHWIRQTPEKGLEWVAYISSGSRPIYYADTVQGRFTISRDNPKNTLFLQMTSLRSEDTAMYFCARFYYGNSFDHWGQGTLVTVSS
VL: DIVMTQSPSFLTVTAGEKVTMSCKSSQSLLNSGNQKNYLTWYQQKPGQPPKLLIYWASTRESGVPDRFTGSGSGTDFTLTISSVQAEDLALYYCQNAYSFPLTFGAGTKLELK
B8: 393C2C5 (antibody, V domains shown)
VH: DVQLVESGGGLVQPGGSRKLSCAASGFTFSSFGMHWVRQAPEKGLEWVAYISSGSSPIYYADTVKGRFTISRDNPKNTLFLQMTSLRSEDTAMYFCATFYYGNSFAYWGQGTLVTVSA
VL: DIVMTQSPSSLTVTAGEKVTMSCKSSQTLLNSGNQKNYLTWYQQKSGQPPKLLIYWASTRESGVPDRFTGSGSGTDFTLTISSVQAEDLAVYYCQNAYSYPVTFGSGTKVELK
B9: 395B3C11 (antibody, V domains shown)
VH: DVQLVESGGGLVQPGGSRKLSCAASGFTFSGFGMHWIRQTPEKGLEWVAYISSGSRPIYYADTVQGRFTISRDNPKNTLFLQMTSLRSEDTAMYFCARFYYGNSFDHWGQGTLVTVSS
VL: DIVMTQSPSFLTVTAGEKVTMSCKSSQSLLNSGNQKNYLTWYQQKPGQPPKLLIYWASTRESGVPDRFTGSGSGTDFTLTISSVQAEDLALYYCQNAYSFPLTFGAGTKLELK
B10: 292D9C7 (antibody, V domains shown)
VH: QVQLKESGPGLVAPSQSLSITCTVSGFSLTDYGVSWIRQPPGKGLEWLGVIWGGGNAYYNSALKSRLSISKDNSKSQVFLKMNSLRTDDTAMYYCAKNGLLRYLDYWGQGSTLTVSS
VL: DTVMTQSPSSLTVTAGEKVTMSCKSSQSLLNSGNQKNYLTWYQQKPGQPPKLLIYWASTRESGVPDRFTGSGSGRDFTLTISSVQVEDLAIYYCQNDYYYPLTFGAGTKVELK
B11: 394C2G5 (antibody, V domains shown)
VH: DVQLVESGGGLVQPGGSRKLSCAASGFTFSGFGMHWIRQTPEKGLEWVAYVSSGSRPIYYADTVKGRFTISRDNPKNTLFLQMTSLRSEDTAMYFCARFYYGNSFDHWGQGTLVTVSA
VL: DIVMTQSPSFLTVTAGEKVTMSCKSSQSLLNSGNQKNYLTWYQQKPGQPPKLLIYWASTRESGVPDRFTGSGSGTDFTLTINNVQAEDLALYYCQNAYSFPLTFGAGTKLELT
B12: 279E8B8 (antibody, V domains shown)
VH: QAYLQQSGAELVRSGASVKISCKASGYTFASHNMHWVKQTPGQGLEWIGYIYPGNGGTKYNQKFTGKATLSADTSSSTAYLQISSLTSEDSAVYFCARDYFGNSFVYWGQGTLVTVSA
VL: DIVMTQSPSSLTEKAGEKVSMRCKSSQSLLNSGNQKNYLTWYQQKPGQPPKLLIYWASTRESGVPDRFTGSGSGTDFTLTISSVQADDLAVYYCQNDYMYPFTFGAGTKLELK
B13: 405G8F11 (antibody, V domains shown)
VH: DVQLVESGGGLVQPGGSRKLSCVTSGFTFSSFGMHWVRQAPEKGLEWVAYISSGSSPIYYADTVKGRFTISRDNPKNTLFLQMSSLRSEDTAMYFCARFYYGNSFAYWGQGTLVTVSA
VL: DIVMTQSPSSLTVTAGEKVTMNCKSSQSLLNSGNQKNYLTWYQQKLGQPPKLLMYWASTRESGVPDRFTGSGSGTDFTLTISSVQAEDLAVYFCQSAFSYPLTFGAGTKLELK
B14: 392C2F10 (antibody, V domains shown)
VH: EVQLQQSGPELVKPGASMKISCKASGYSFTGYTMNWVKQSLGKNLEWIGLINPFNGGTTYNQKFKGKATLTVDKSSSTAYMELLSLTSDDSAVYYCTRGDYWGQGTTLTVSS
VL: DIVMTQSPSSLTVTAGEKVTMSCKSSQSLLNSGNQKNYLTWYQQKPGQPPKLLIYWASTRESGVPDRFAGSGSGTDFTLTISSVQAEDLAVYYCQSDYSYPTFGAGTKLELK

The test has as its target human Claudin18.2 (human). Kind of test: cell-based or functional assay.
Consider B1, for which the “CDC % Relative activity” value came to 106% and the “CDC EC50” value is 1.54 µg/mL.

For B2, the “CDC % Relative activity” value came to 107% and the “CDC EC50” value was found to be 1.52 µg/mL.

Regarding B3, the “CDC % Relative activity” value was found to be 121% and the “CDC EC50” value is 1.35 µg/mL.

On to B4, for which the “CDC % Relative activity” value was found to be 379% and the “CDC EC50” value is 0.453 µg/mL.

B5: the “CDC % Relative activity” value was 176% and the “CDC EC50” value is 1.47 µg/mL.

As to B6, the “CDC % Relative activity” value is 133% and the “CDC EC50” value stood at 1.95 µg/mL.

Turning to B7, the “CDC % Relative activity” value is 125% and the “CDC EC50” value stood at 2.07 µg/mL.

B8: the “CDC % Relative activity” value is 285% and the “CDC EC50” value is 0.909 µg/mL.

Take B9: the “CDC % Relative activity” value is 144% and the “CDC EC50” value stood at 1.8 µg/mL.

As to B10, the “CDC % Relative activity” value is 151% and the “CDC EC50” value is 1.14 µg/mL.

B11: the “CDC % Relative activity” value was determined as 131% and the “CDC EC50” value was found to be 1.98 µg/mL.

Consider B12, for which the “CDC % Relative activity” value was 129% and the “CDC EC50” value is 1.27 µg/mL.

Consider B13, for which the “CDC % Relative activity” value came out at 0.08% and the “CDC EC50” value is 3220 µg/mL.

With B14, the “CDC % Relative activity” value came to 5.43% and the “CDC EC50” value is 47.6 µg/mL.

(Values after US20220073643A1 (NANJING GENSCRIPT BIOTECH, published 2022).)
